Experimental data reported in article PMC9568614.
Where “and” joins values, the source holds several entries; their conditions need not be identical. Equal entries are not always repeated.

Columns and labels:
[1] = target: recombinant human FcRn (FcRn alpha-chain with C-terminal BirA 10x-Histidine tag, with beta-2-microglobulin) (human) (UniProt P55899); assay: SPR
[2] = target: recombinant human FcRn (FcRn alpha-chain with C-terminal BirA 10x-Histidine tag, with beta-2-microglobulin) (human) (UniProt P55899); assay: SPR; pH 7.4
[3] = target: recombinant human FcRn (FcRn alpha-chain with C-terminal BirA 10x-Histidine tag, with beta-2-microglobulin) (human) (UniProt P55899); assay: SPR; pH 6.0
[4] = target: FcRn coupled to the FcRn Affinity Column (Roche) (UniProt P55899); assay: FcRn-affinity chromatography; FcRn Affinity Column (Roche); antibody or fragment injected at pH 5.5 (20 mM MES, 150 mM NaCl), pH gradient to pH 8.8 (20 mM Tris-HCl, 150 mM NaCl); elution pH read
[5] = target: Fc-MST-HN (IgG1 Fc fragment with M252Y, S254T, T256E, H433K, N434F) (human); assay: crystal structure; Fc-MST-HN with EndoH- and thrombin-treated FcRn:beta2M, complex isolated by preparative SEC; crystals from 0.1 M sodium cacodylate pH 7.0, 293 K
Fc-MST-HN (human) [6] = assay: SPR; IBIS MX96; IgG or Fc randomly coupled on a SensEye G Easy2Spot array at four spotting concentrations (60, 30, 15, 7.5 nM); monomeric human FcRn injected 0.49-1000 nM in PBS, 0.075% Tween 80, pH 7.4; equilibrium analysis, Langmuir 1:1 model; one KD for each spot (with its RU), later interpolated to Rmax = 700 RU
Fc-MST-HN (human) [7] = assay: SPR; IBIS MX96; IgG or Fc randomly coupled on a SensEye G Easy2Spot array at four spotting concentrations (60, 30, 15, 7.5 nM); monomeric human FcRn injected 0.49-1000 nM in PBS, 0.075% Tween 80, pH 6.0; equilibrium analysis, Langmuir 1:1 model; one KD for each spot (with its RU), later interpolated to Rmax = 700 RU
[8] = target: anti-HEL IgG1-MST-HN (human); assay: as above
Fc-WT (human) = assay: as above
anti-HEL IgG1-WT (human) = assay: as above
Fc-MST (human) = assay: ITC; 37 °C, PEAQ-ITC; as drawn in the figure FcRn:b2M titrated into the Fc (reverse setup: 6 uM in the cell, 165 uM in the syringe); fit A + B + B with 2 symmetric sites, macroscopic K (Sedphat); buffer and pH not stated; four runs for Fc-MST-HN (values averaged), one for Fc-YTE

## anti-HEL IgG1-MST-HN (full-size IgG1) (from UniProt P01857)
[1]
  Kd: 39 nM
[2]
  Kd: 899 nM

## anti-biotin IgG1-WT (from UniProt P01857)
[3]
  Kd: 200 nM

## anti-HEL IgG1-WT (full-size IgG1) (antibody)
[4]
  elution pH: 7 pH

## FcRn:beta2M (FcRn residues 1-297 with beta-2-microglobulin residues 1-119), EndoH-treated, tags removed by thrombin (from UniProt P55899 24-297; P61769 21-119) (complex)
[5]
  stoichiometry N: 2 FcRn per Fc

## anti-HEL IgG1-MST-HN (full-size IgG1) (antibody)
[4]
  elution pH: 8.7 pH

## recombinant human FcRn (FcRn α-chain with ß2-microglobulin) (from UniProt P55899 24-297; P61769 21-119) (receptor)
Fc-MST-HN (human) [6]
  Kd: 1150 nM and 1040 nM and 830 nM
Fc-MST-HN (human) [7]
  Kd: 37 nM and 34 nM and 32 nM
[8]
  Kd: 37 nM and 34 nM
Fc-WT (human)
  Kd: 240 nM and 270 nM
anti-HEL IgG1-WT (human)
  Kd: 600 nM

## FcRn:ß2M (recombinant extracellular domain of human FcRn in complex with beta-2-microglobulin, as used for ITC) (from UniProt P55899 24-297; P61769 21-119) (receptor)
Fc-MST (human)
  Kd: 66.2 nM

## anti-HEL IgG1-WT (full-size IgG1) (from UniProt P01857)
[1]
  Kd: 381 nM

## Fc-MST-HN (IgG1 Fc fragment with M252Y, S254T, T256E, H433K, N434F) (domain or fragment)
[4]
  elution pH: 8.7 pH

## Fc-WT (wild-type human IgG1 Fc fragment) (domain or fragment)
[4]
  elution pH: 7 pH
